Assays:
[1] = Release of Papain from DC Beads (300-500 μm), azo-casein assay; type: physicochemical; details: 80 μL, loaded from 200 μL 5 mg/mL Papain, 6 hrs, 5 mL PBS pH 6.5
Experimental: 80 μL of DC Beads® (300-500 μm) were taken in a 1.5 mL centrifuge tube and washed twice with distilled water. 200 μL of a 5 mg/mL Papain solution was added and the mixture incubated at room temperature for 6 hrs with gentle agitation. The beads were then washed twice with distilled water and suspended in 5 mL PBS pH 6.5. The first sample of 250 μL was taken at 30 min, and thereafter samples were taken every hour for the next 16 hrs, with 250 μL PBS being replaced each time. The Papain concentration in the samples was measured by azo-casein assay and the cumulative release of Papain from the DC Beads as a function of time is set out in Graph shown below.

[2] = tested on: HT29 cells; experiment: Efficacy of Papain released from DC Beads in Transwell chamber; type: cell-based, human; details: 5 mg/ml Papain (500 μg/80 μl beads) loaded beads in Transwell chamber; after 3 hours
Experimental: Subsequently, experiments were conducted to determine the efficacy of the Papain released from the beads. In these experiments, HT29 cells (human colorectal cancer cell line) were seeded in 24 well plates. After 24 h, the plates were treated with 5 mg/ml Papain (500 μg/80 μl beads) loaded beads in a Transwell chamber. After every 3 h, the Transwell chamber containing beads was transferred to a fresh well. This process was continued up to 3 days.

B1: Papain: plant-derived mucin-affecting protease enzyme extracted from papaya; loaded into DC Beads 300-500 μm (protein, UniProt P00784 134-345, looked up)
Papain: IPEYVDWRQKGAVTPVKNQGSCGSCWAFSAVVTIEGIIKIRTGNLNEYSEQELLDCDRRSYGCNGGYPWSALQLVAQYGIHYRNTYPYEGVQRYCRSREKGPYAAKTDGVRQVQPYNEGALLYSIANQPVSVVLEAAGKDFQLYRGGIFVGPCGNKVDHAVAAVGYGPNYILIKNSWGTGWGENGYIRIKRGTGNSYGVCGLYTSSFYPVKN
modifications: loaded into DC Beads
notes: plant-derived mucin-affecting protease enzyme extracted from papaya; loaded into DC Beads 300-500 μm
- duration of sustained release of Papain [1]: greater than 16 hours
- effect of Papain released from the DC Beads on cells [2]: death of all cells
